# Target: SARS-CoV-2 spike protein on HIV-1 pseudotyped particles (SARS-CoV-2, UniProt P0DTC2 14-1254)
# Experiment: cell-based or functional assay
Binder,Neutralization IC50 [µg/mL],Neutralization IC90 [µg/mL]
"C043 (antibody, V domains shown) VH: QLVQSGPEVKKPGTSVKVSCKASGFTFYNSAVQWVRQARGQRLEWVGWIVVGSGNTDYAQKFQERVTMTRDLSTNTAYMEVNSLRSEDTAVYYCAAPYCSGGTCLDGFDIWGQGTMVTVSS VL: EIVLTQSPGTLSLSPGERGTLSCRASQSVRSNYLAWYKQRPGQAPRLLVYGASSRATGIPDRFSGSGSGTDFTLTISRLEPEDFAVYYCQQYGSSPWTFGQGTKVEIK",0.0106,0.0744
"C098 (antibody, V domains shown) VH: EVQLVESGGGLIQPGGSLRLSCAASGFTVSSNYMSWVRQAPGKGLEWVSVIYSGGSTYYADSVKGRFTISRDNSKNTLYLQMNSLRAEDTAVYYCARDLYSSGGTDIWGQGTMVTVSS VL: not shown",0.479,4.25
"C099 (antibody, V domains shown) VH: EVQLVESGGGLIQPGGSLRLSCAASGITVSSNYMSWVRQAPGKGLEWVSVMYAGGSTFYADSVKGRFTISRDDSKNTLFLQMNSLRAEDTAIYYCARDLYSSGGTDIWGQGTMVTVSS VL: EIVLTQSPGTLSLSPGERATLSCRASQSIGSSYLAWYQQKPGLAPRLLIYGASRRATGIPDKFSGSGSGADFTLTISRLEPEDFAVYYCQQYGSSPGTFGQGTKVEIK",0.0272,0.0861
"C048 (antibody, V domains shown) VH: VQLQESGPGLVKPSETLSLTCAVSGGSVSSGNYYWNWIRQPPGKGLEWIGYIYYSGSTNYNPSLKSRVTISVDTSKNQFSLKLNSVTAADTAVYHCARETYYYDSSGYYISDAFDIWGQGTMVTVSS VL: not shown",0.0622,0.523
"C049 (antibody, V domains shown) VH: QVQLQESGPGLVKPSETLSLTCTVSGGSVSSGTFYWSWIRQPPGKGLEWIGYIHYSGSTNYNPSLKSRVTISVDTSKNQFSLRLSSVTAADTAVYYCARESFYYDRSGYYGSDAFDIWGQGTMVTVSS VL: DIQMTQSPSTLSSSVGDRVTITCRASQNISRWLAWYQQKPGKAPKLLIYKASTLESGVPSRFSGSGSGTKFTLTISSLQPDDFATYYCQQYNSYLYTFGQGTKLEIK",0.0181,0.129
"C044 (antibody, V domains shown) VH: EVQLVESGGGLVQPGGSLRLSCAASGFTFSSYSMNWVRQAPGKGLEWVSYISSSSSTIYYADSVKGRFTISRDNAKNSLYLQMNSLRDEDTAVYYCAREAHDGALTDYGDYLNWFDPWGQGTLVTVSS VL: SYELTQPPSVSVAPGKTARITCGGNNIGSKSVHWYQQKPGQAPVLVIYYDSDRPSGIPERFSGSNSGNTATLTISRVEAGDEADYYCQVWDSSSDHLYWVFGGGTKLTVL",> 10,> 10
"C045 (antibody, V domains shown) VH: EVQLVESGGGLVQPGGSLRLSCAASGFTFSTYSMNWVRQAPGKGLEWVSYISSSSSTIHYADSVKGRFTISRDNAKNSLYLQMNSLRDEDTAVYYCAREAHDGALTDYGDYLNWFDPWGQGTLVTVSS VL: SYELTQPPSVSVAPGKTARITCGGTNIGSKNVHWYQQKPGQAPVLVIYYDNDRPSGIPERFSGSNSGNTATLTISRVEAGDEADYYCQVWDTTSDHFYWVFGGGTKLTVL",> 10,> 10

# Target: SARS-CoV-2 receptor binding domain (RBD), wild type (SARS-CoV-2, UniProt P0DTC2 319-539)
# Experiment: ELISA, RBD coated on the plate, antibody titrated
row,Binder,EC50 [µg/mL]
1,"C591 (antibody, V domains shown) VH: QVQLVQSGAEVKKPGASVKVSCKASGYILTDYFIHWVRQAPGQGLEWMGWINPNSGGTNYAQKFQGRVTMTRDTSISTAYMELSRLRSDDTAVYHCARYKGTTVNTNYYYGMDVWGQGTTVTVSS VL: not shown",0.00383
2,"C592 (antibody, V domains shown) VH: QVQLVQSGAEVKKPGASVKVSCKASGYTFTDYFNHWVRQAPGQGLEWMGWINPNSGGTNSAQKFQGRVTMTRDTSITTVYMELSRLRSDDTAVYYCARYKGTTVNTNYYYGMDVWGQGTTVTVSS VL: SYELTQPPSVSVSPGQTASITCSGDKLRNKYACWYQQKAGQSPMLVIYQDTKRPSGIPERFSGSNSGNTATLTISGTQAMDEADYYCQAWDISTVVFGGGTKLTVL",0.006
3,"C588 (antibody, V domains shown) VH: EVQLVESGGGLVQPGGSLKLSCAASGFTFSGSAMHWVRQASGKGLEWVGRIRNKANSYATAYGASVRGRFTVSRDDSKNTAYLQMNSLKIEDTAVYYCTKDIAAGIPALNWFDSWGQGTLVTVSS VL: EIVLTQSPATLSLSPGERATLSCRASQSVSSYLAWYQQKPGQAPRLLIYDASNRATGIPARFSGSGSGTDFTLTISSLEPEDFAVYYCQQHTNWPPRITFGGGTKVEIK",0.00136
4,"C587 (antibody, V domains shown) VH: QVQLVQSGAEVKKSGSSVKVSCKASGGSFSSYAISWVRQAPGQGLEWMGGIIPIFGTAKYAQKFQGRVTITADESTSTAYMELSSLRSEDTAVYYCASRWEQLNGGSWHYFDYWGQGTLVTVSS VL: QSALTQPASVSGSPGQSITISCTGTRSDVGRNNLVSWYQHHPGKAPKVMIYEGSKRPSGVSTRFSGSKSGNTASLTISGLQAEDEADYYCCSYAGSSTFEGVFGGGTKLTVL",0.00439
5,"C586 (antibody, V domains shown) VH: EVQLVESGGGLIQPGGSLRLSCTASGLIVSSNYMSWIRQAPGKGLEWVSLIYSGGSTFYADSVKGRFTISRDNSKNTLFLHMNSLRAEDTAVYYCARHPYGTDVWGQGTTVTVSS VL: DIQMTQSPSSLSASVGDRVTITCQASQDIVKYLNWYQQKSGKAPKLLIHDASNLETGVTSRFSGSGSGTHFTFTISSLQPEDLATYYCQQYDNLPITFGQGTRLEIK",0.00542
6,"C589 (antibody, V domains shown) VH: QVQLQESGPGLVKPSQTLSLTCTVSGGSISSGDYYWSWIRQPPGKGLEWIGYIYYSGSTNYNPSLRSRVTISVDTSKNQFSLRLRSVTAADTAVYYCARDAIGSASYGVEYFQHWGQGTLVTVSS VL: not shown",0.00661
7,"C594 (antibody, V domains shown) VH: QVQLVESGGGVVQPGRSLRLSCAASGFTFSSYGMHWVRQAPGKGLEWVAVISDDGSNKYYADSVKGRFTISRDNSKNTLYLQMNSLRAEDTAVYYCAKSWWLSENWFDPWGQGTLVTVSS VL: EIVMTQSPATLSVSPGERATLSCRASQSVSSNLAWYQQKPGQAPRLLIYGASTRATGIPARFSGTGSGTEFTLTISSLQSEDFAVYYCQQYNNWPLTFGGGTKVEIK",0.00263
8,"C595 (antibody, V domains shown) VH: QVQLVESGGGVVQAGRSLRLSCAASGFTFSSFGLHWVRQAPGKGLEWVAVISDDGANKYYADSVKGRFTISRDNSKNTLYLQMNSLRADDTAKYYCAKSWWLSENWFDPWGQGTLVTVSS VL: EIVMTQSPATLSVSPGERATLSCRASQSVRSNLAWYQQKPGQAPRLLIYGASTRATGIPARFSGSGSGTDFTLTISSLQSEDFAVYYCQQYNNWPLTFGGGTKVEIK",0.00204
9,"C584 (antibody, V domains shown) VH: EVQLVESGGGLVQPGGSLRLSCAASGFTFSTYDMHWVRQATGKGLEWVSAIGTAGDKYYPGSVKGRFTISRENAKNSLYLQMNSLRAGDTAVYYCVRAGYSSGWPLYWYFDLWGRGTLVTVSS VL: DIQMTQSPSSLSASVGDRVTITCRASQSISSYLNWYQQKPGKAPKFLIYAASSLQSGVPSRFSGSGSGTDFTLTISNLQPEDFATYYCQQSYRTPPEFTFGPGTKVDIK",0.0105
10,"C582 (antibody, V domains shown) VH: QVQLVESGGGVVQPGRSLRLSCVASGFTFSYFDMHWVRQAPGKGLEWVALISHDGSTTFYGDSARGRFTISRDNSRNTLDLQMNSLRPEDTAVYFCAKPVDAAMFDFWGQGTLVTVS VL: SYELTQPPSVSVAPGKTARITCGGNNIGSKSVHWYQQRPGQAPVLVIYYDSDRPSGIPERFSGSNSGNTATLTISRVEAGDEADFYCQVWDRSTNHLVVFGGGTQLTVL",0.00843
11,"C585 (antibody, V domains shown) VH: QVQLQESGPGLVKPSETLSLTCTVSGDSISSYFWSWIRQPPGRGLEWIGYIHDSVNTNYNPSLKSRVTISVDTSKSQFSLRLSSVTAADTAVYYCARCAWLRGSFDYWGQGTLVTVSS VL: NFMLTQPHSVSESPGKTVTISCTGSSGSIASNYVQWYQQRPGSAPTTVIYEDNQRPSGVPDRFSGSIDSSSNSASLTISGLKTEDEADYYCQSYDFSSHYVFGTGTKVTVL",0.011
12,"C596 (antibody, V domains shown) VH: QVQLVESGGGVVQPGRSLRLSCAASGITFSHYGMHWVRQAPGKGLEWVALISSDGSKKYYADSVKGRFTISRDNSKSTLYLQMNSLRAEDTAIYYCAKDLGYYYGPPYGPDYWGQGTLVTVSS VL: DIQMTQSPSSLSASVGDRVTITCQASQDVSNSLNWYQQKPGKAPKLLIYDASNLETGVPSRFSGSGSGTDFSFTISSLQPEDIATYYCLQYDNFSMYTFGQGTKLEIK",0.021
13,"C590 (antibody, V domains shown) VH: QVQLVQSGAEVKKPGASVKVSCKVSGYNLTELSMYWVRQAPGKGLEWMGGFDPEDGGPIHAQKFQGRVTMTEDPSTDTAYMELRSLRSEDTALYYCATGGLFMIRGLEIWGRGTLVTVSS VL: EIVLTQSPGTLSLSPGERATLSCRASQSISYTSLAWYQQKPGQAPRLLIFGASRGATGTPDRFSGSWSGTDFTLTISRLEPEDFAVYYCQQYGNSPRLSFGGGTKVEIK",0.00281
14,"C593 (antibody, V domains shown) VH: QVQLVQSGAEVKKPGASVKVSCKASGYTFTSYDINWVRQAPGQGLEWMGWMNPNSGNTDYAQKFQGRFTMTRNTSISTAYMELSSLRSEDTAVYYCASRRWDPLTFYYYMVVWGKGTTVTVSS VL: not shown",0.00436
15,"C583 (antibody, V domains shown) VH: EVQLVESGGGLIQPGGSLRLSCAASILTVSRNYMSWVRQAPGKGLEWVSSIYSGGTTYYADSVKGRFTISRDDSKNTLYLQMNSLRAEDTAVYYCARPVVGGRAGMDVWGQGTTVTVSS VL: DIQMTQSPSSLSASVGDRVTITCQASQDINKYLNWYQQKPGKAPKLLIYDASNLETGVPSRFSGSGSGTDFTFTISSLQPEDIGTFYCLHNDNPPLTFGGGTKVEIK",0.00442

# Source: patent US20220195015A1 (published 2022)
